In patent US20210371503A1:
Where two headings read alike, the source gives them in different places.

Assays:
[1] = biological target: the antigen (SARS-CoV-2 spike (S) protein, form not stated in Example 13) (SARS-CoV-2) (UniProt P0DTC2); test: SPR relative binding activity; formulation F5, nebulized with eFlow-Rapid
[2] = biological target: the antigen (SARS-CoV-2 spike (S) protein, form not stated in Example 13) (SARS-CoV-2) (UniProt P0DTC2); test: SPR relative binding activity; undiluted 50 mg/mL, formulation F5, nebulized
[3] = biological target: the antigen (SARS-CoV-2 spike (S) protein, form not stated in Example 13) (SARS-CoV-2) (UniProt P0DTC2); test: SPR relative binding activity; 1:5 diluted 10 mg/mL, formulation F5, nebulized
[4] = biological target: the antigen (SARS-CoV-2 spike (S) protein, form not stated in Example 13) (SARS-CoV-2) (UniProt P0DTC2); test: SPR relative binding activity; undiluted 50 mg/mL, formulation F7, initial
[5] = biological target: the antigen (SARS-CoV-2 spike (S) protein, form not stated in Example 13) (SARS-CoV-2) (UniProt P0DTC2)
[6] = biological target: the antigen (SARS-CoV-2 spike (S) protein, form not stated in Example 13) (SARS-CoV-2) (UniProt P0DTC2); test: SPR relative binding activity; 1:5 diluted 10 mg/mL, formulation F6, nebulized
[7] = biological target: the antigen (SARS-CoV-2 spike (S) protein, form not stated in Example 13) (SARS-CoV-2) (UniProt P0DTC2); test: SPR relative binding activity; undiluted 50 mg/mL, formulation F6, nebulized
[8] = biological target: the antigen (SARS-CoV-2 spike (S) protein, form not stated in Example 13) (SARS-CoV-2) (UniProt P0DTC2); test: SPR relative binding activity; undiluted 50 mg/mL, formulation F8, initial
[9] = biological target: the antigen (SARS-CoV-2 spike (S) protein, form not stated in Example 13) (SARS-CoV-2) (UniProt P0DTC2); test: SPR relative binding activity; undiluted 50 mg/mL, formulation F7, nebulized
[10] = biological target: the antigen (SARS-CoV-2 spike (S) protein, form not stated in Example 13) (SARS-CoV-2) (UniProt P0DTC2); test: SPR relative binding activity; undiluted 50 mg/mL, formulation F5, initial
[11] = biological target: the antigen (SARS-CoV-2 spike (S) protein, form not stated in Example 13) (SARS-CoV-2) (UniProt P0DTC2); test: SPR relative binding activity; 1:5 diluted 10 mg/mL, formulation F5, initial
[12] = biological target: the antigen (SARS-CoV-2 spike (S) protein, form not stated in Example 13) (SARS-CoV-2) (UniProt P0DTC2); test: SPR relative binding activity; 1:5 diluted 10 mg/mL, formulation F7, nebulized
[13] = biological target: the antigen (SARS-CoV-2 spike (S) protein, form not stated in Example 13) (SARS-CoV-2) (UniProt P0DTC2); test: SPR relative binding activity; 1:5 diluted 10 mg/mL, formulation F8, nebulized
[14] = biological target: the antigen (SARS-CoV-2 spike (S) protein, form not stated in Example 13) (SARS-CoV-2) (UniProt P0DTC2); test: SPR relative binding activity; reference standard, initial
[15] = biological target: the antigen (SARS-CoV-2 spike (S) protein, form not stated in Example 13) (SARS-CoV-2) (UniProt P0DTC2); test: SPR relative binding activity; formulation F5, control unnebulized
[16] = biological target: the antigen (SARS-CoV-2 spike (S) protein, form not stated in Example 13) (SARS-CoV-2) (UniProt P0DTC2); test: SPR relative binding activity; 1:5 diluted 10 mg/mL, formulation F6, initial
[17] = biological target: the antigen (SARS-CoV-2 spike (S) protein, form not stated in Example 13) (SARS-CoV-2) (UniProt P0DTC2); test: SPR relative binding activity; formulation F5, nebulized with Pariboy
[18] = biological target: the antigen (SARS-CoV-2 spike (S) protein, form not stated in Example 13) (SARS-CoV-2) (UniProt P0DTC2); test: SPR relative binding activity; 1:5 diluted 10 mg/mL, formulation F7, initial
[19] = biological target: the antigen (SARS-CoV-2 spike (S) protein, form not stated in Example 13) (SARS-CoV-2) (UniProt P0DTC2); test: SPR relative binding activity; undiluted 50 mg/mL, formulation F8, nebulized
[20] = biological target: the antigen (SARS-CoV-2 spike (S) protein, form not stated in Example 13) (SARS-CoV-2) (UniProt P0DTC2); test: SPR relative binding activity; 1:5 diluted 10 mg/mL, formulation F8, initial
[21] = biological target: the antigen (SARS-CoV-2 spike (S) protein, form not stated in Example 13) (SARS-CoV-2) (UniProt P0DTC2); test: SPR relative binding activity; formulation F5, nebulized with Aerogen Solo
[22] = biological target: the antigen (SARS-CoV-2 spike (S) protein, form not stated in Example 13) (SARS-CoV-2) (UniProt P0DTC2); test: SPR relative binding activity; undiluted 50 mg/mL, formulation F6, initial
[23] = biological target: the antigen (SARS-CoV-2 spike (S) protein, form not stated in Example 13) (SARS-CoV-2) (UniProt P0DTC2); test: SPR relative binding activity; formulation F5, nebulized with Droh

Sequence of DZIF-10c (antibody) (VH): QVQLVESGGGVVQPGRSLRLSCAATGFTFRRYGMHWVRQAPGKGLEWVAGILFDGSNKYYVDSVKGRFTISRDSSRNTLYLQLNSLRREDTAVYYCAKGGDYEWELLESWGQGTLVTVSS
Sequence of DZIF-10c (antibody) (VL): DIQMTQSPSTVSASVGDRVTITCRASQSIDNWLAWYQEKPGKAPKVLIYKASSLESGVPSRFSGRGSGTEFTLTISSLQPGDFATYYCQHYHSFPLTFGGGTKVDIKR

Substance: DZIF-10c (antibody)
- SPR Binding Activity (RLCA %) [1]: 100%
- SPR Binding Activity (RLCA %) [2]: 96%
- SPR Binding Activity (RLCA %) [3]: 96%
- SPR Binding Activity (RLCA %) [4]: 96%
- SPR Binding Activity (RLCA %) [5]: 100%
- SPR Binding Activity (RLCA %) [6]: 96%
- SPR Binding Activity (RLCA %) [7]: 96%
- SPR Binding Activity (RLCA %) [8]: 96%
- SPR Binding Activity (RLCA %) [9]: 96%
- SPR Binding Activity (RLCA %) [10]: 96%
- SPR Binding Activity (RLCA %) [11]: 96%
- SPR Binding Activity (RLCA %) [12]: 96%
- SPR Binding Activity (RLCA %) [13]: 96%
- SPR Binding Activity (RLCA %) [14]: 100%
- SPR Binding Activity (RLCA %) [15]: 100%
- SPR Binding Activity (RLCA %) [16]: 96%
- SPR Binding Activity (RLCA %) [17]: 100%
- SPR Binding Activity (RLCA %) [18]: 96%
- SPR Binding Activity (RLCA %) [19]: 96%
- SPR Binding Activity (RLCA %) [20]: 96%
- SPR Binding Activity (RLCA %) [21]: 100%
- SPR Binding Activity (RLCA %) [22]: 95%
- SPR Binding Activity (RLCA %) [23]: 100%
